A protein production outcome set (Wang et al. 2014)

Test: label from the status in PepcDB records

Question: For “MSCVHYKFSSKLNYDTVTFDGLHISLCDLKKQIMGREKLKAADCDLQITNAQTKEEYTDDNALIPKNSSVIVRRIPIGGVKSTSKTYVISRTEPAMATTKAIDDSSASISLAQLTKTANLAEANASEEDKIKAMMSQSGHEYDPINYMKKPLGPPPPSYTCFRCGKPGHYIKNCPTNGDKNFESGPRIKKSTGIPRSFMMEVKDPNMKGAMLTNTGKYAIPTIDAGRLLFHKLGTMGHKQIDTYFWNRGDVYGATATQITHLREAYAIGKKEKPPFLPEEPSSSSEEDDPIPDELLCLICKDIMTDAVVIPCCGNSYCDECIRTALLESDEHTCPTCHQNDVSPDALIANKFLRQAVNNFKNETGYTKRLRKQLPPPPPPIPPPRPLIQRNLQPLMRSPISRQQDPLMIPVTSSSTHPAPSISSLTSNQSSLAPPVSGNPSSAPAPVPDITATVSISVHSEKSDGPFRDSDNKILPAAALASEHSKGTSSIAITALMEEKGYQVPVLGTPSLLGQSLLHGQLIPTTGPVRINTARPGGGRPGWEHSNKLGYLVSPPQQIRRGERSCYRSINRGRHHSERSQRTQGPSLPATPVFVPVPPPPLYPPPPHTLPLPPGVPPPQFSPQFPPGQPPPAGYSVPPPGFPPAPANLSTPWVSSGVQTAHSNTIPTTQAPPLSREEFYREQRRLKEEEKKKSKLDEFTNDFAKELMEYKKIQKERRRSFSRSKSPYSGSSYSRSSYTYSKSRSGSTRSRSYSRSFSRSHSRSYSRSPPYPRRGRGKSRNYRSRSRSHGYHRSRSRSPPYRRYHSRSRSPQAFRGQSPNKRNVPQGETEREYFNRYREVPPPYDMKAYYGRSVDFRDPFEKERYREWERKYREWYEKYYKGYAAGAQPRPSANRENFSPERFLPLNIRNSPFTRGRREDYVGGQSHRSRNIGSNYPEKLSARDGHNQKDNTKSKEKESENAPGDGKGNKHKKHRKRRKGEESEGFLNPELLETSRKSREPTGVEENKTDSLFVLPSRDDATPVRDEPMDAESITFKSVSEKDKRERDKPKAKGDKTKRKNDGSAVSKKENIVKPAKGPQEKVDGERERSPRSEPPIKKAKEETPKTDNTKSSSSSQKDEKITGTPRKAHSKSAKEHQETKPVKEEKVKKDYSKDVKSEKLTTKEEKAKKPNEKNKPLDNKGEKKKKK”, which protein production is on record?
Answer: The protein production was “not failed”.

Question: With “MSCWKTINLVKDYGGMRIVLTAVSLMILFFIPEYLAMQLIHPQTVQRGDHALLFAGLLVAAIIAHKILHILPMISKKKLEKKIYWLKMRTWREIPKNMMLVSLLCPFLVITPVLFYAGAAMPSFAHYFCIISSIHFGYCLPDFLFAWKLIKAPKNCFVDQEADDFDILIQK” as the sequence, how does the protein production read?
Answer: Its protein production is “failed”.

Question: For “MSDAFTDVAKMKKIKEEIKAHEGQVVEMTLENGRKRQKNRLGKLIEVYPSLFIVEFGDVEGDKQVNVYVESFTYSDILTEKNLIHYLD”, which protein production is on record?
Answer: The protein production was “not failed”.

Question: Which protein production does the source give for “MSDAPTSPRFSAATSTRLLDHAQLEALCADYDGFLLDLWGVVMDGTEAFPGALAWLARRHAEGRPVWFLSNSSSSVAEMSAGLERLGIRRDWFAGITTSGQLTIDALLQTAEYRRGGIYLAGVGLAQQSWPAEIRERFVEDIAQAALIVGVGSFPQDELEQRFAPLRGATDLPFLCANPDRVVVSGGRTVYGAGMLAELFSEEGGQVSWYGKPDPAAFRIAQRQLEARGARHILFVGDSLVTDVPGALAARIDTLWLGATGIHREALGAEFNGALDEERVRSLLHGYPIRPHFAAPGLV” here?
Answer: The protein production was “failed”.

Question: For “MSDDLALTALAASSFSLPELREGQLAGMTALVERRDVLAVMPTGYGKSATYQVAALYLHNKTGRPAVVVSPLIALQEDQLDGLAEHLGEGAGVAINSSRSDAEVEAAWQAVESGQAAFLFLAPEQLSKRETVERIANLDITMFVVDEAHCVSSWGHDFRPDYLELGHVREHLGNPPVIALTATASPPVRDEIVKRLGMTEPVVLVRGFDRPNISLDVVRHQEDKGKRKAVMEQVVALAKAEGLGLLYAATRKATEKYAAKLTEHGLRAEAYHAGRADSDRESIHERFLDDQLDVVVATTAFGMGIDKPNVRFVVHADIPESLDSYYQEIGRAGRDGEPATAILHYRAEDLGLRKFFATHSPDAEALTAVLKVIKNAGAPVPKTALVELTGFPARRVTALVNQLEEAGAVTTGKRGTRLSSKAKLTTLVDRAVELAEARQRVDQSRLTMMRAYAETDACRRQFLLGYFGEDLPEPCGNCDACAEIHDDAGSGSAGHLTSTAENLFPLQSTVIHKEWGPGLVMRHEDDVMTVLFEQEGYKTLSRAAVVEHELLKPA”, which protein production is on record?
Answer: The protein production was “failed”.

Question: For “MSDFEKQLWKAADKLRKNIDAAEYKHIVLGLIFLRYISDAFEELYEKLQQGEGEYAGADPEDRDEYKAENVFFVPAISRWPYLQSEAKKPDIGKSVDNAMDAIEKENPLLRGVLPKVFARGNLDPTNLGGLIDLVSNVALGDAKSRSADVLGHVFEYFLGEFALAEGKKGGQFYTPRSVVELLVEMLEPYNGRVFDPCCGSGGMFVQSEKFVADHQGKINDISIYGQESNQTTWRLAKMNLAIRSIDSSQVKWNNEGSFLNDVHKDLKADYVIANPPFNDSDWSGDLLRKDGRWKYGVPPAGNANYAWIQHFLYHLGPSGQAGFVLAKGSLTSKSSGEGDIRKELVEARLVDCIVNLPPKLFLNTQIPASLWFLSRNKANGKHRNRTDEILFIDARNMGHLINRRTREFSPEDIQQIAGTYHKWRNPEGNYEDVKGFCNSAPIERVRELGYVLTPGRYVGLPDDEDNFDFNERFSALKAEFEEQLKEEERLNLRIAENLKKVKPA”, which protein production is on record?
Answer: The protein production was “failed”.

Question: Which protein production does the source give for “MSDFNKYCEEAAREALPDSEDEEDIGDEDTCSAQDLAAEFQLKYKPQDEVSVSLQREYVLSLAADQGFSRMAAGLSNSAVHIYNLDSGAGKLENFSYLPPTDSPQSVSICGVRFLDEGPHNILVGTTDGYVRLYDLRLRGEQARFKYTQHPNVPPVPKSLSCFDRNANGRIICCGTEQFHSNAFLVFFDVRERQQMGVYFESHEDDITSLRFHAQNPDLLATGSVDGLVNVFDVKEPDEDEALLNTFNTESSVARLAWHRNVYDKDIISCVTTTGDFKSYECEEGDEVASFERPDVTAAIRRKKAANFNLINAHNQEDGGVFLLAGTNFNKGEILRSVSVTSKNSLQPLANFQGNKQIVRDSLFDSKRSLLFTGGESGIVTVWAQDASGTAFSSEKLKARKEKKSRKQAPY” here?
Answer: Its protein production is “failed”.

Question: For “MSDHHHHDHHLGCACCALPLLELLDQPQLSQDEWQRELETLAPELGKRFPRPGQQESAIFHGGSIRPLAAAGPSRVAALGMSGGRIVAMGDLDDVRAAMASHRPFREIDLDGRALLPGLVDPHMHIMPSALFKSWISLSAFGVTRNSQDGEDAQVLNPDYSYQQIKDKLLPAIAQAKQPGAASNWVLGFGVDPSLMREWVDIKASSLDELAPPDDNIAVFLLNASGHIGYANTAAMKEAGLTPEQIKKCEGVLTEANIIQIMGKIPKRILAKDLLRNLLMVLHDAASRGNTMLFDAGLGSSLKEAEVRLLQLIAKLGLSPVRIAGALYSNELTQMRQWMKLYQPDLNSQDDSHFSIKALKLVADGSNQGLTGFQFSPYKNVAQHPVPDVPPIGLFNFKIPDAPSSENENRLPDSLASYLHLALGSGWPVLVHSNGEQAMELVLDSYQEAISATRADARHLRLRVEHASLLTDATLSRMASMGLSPSFLIGHVGYWGYALQNDILGEARTELLDRCKSARDAGIRISLHSDHFVSPLGSLRMAEQAIYRKMEGAPQEEKPVLNKEECLSHEQALAAVTLDAAWQCHMDHLVGSLEPGKLADMVILGQDPLDDGVTDLRHINVHETWRGGARVYANPNTH”, which protein production is on record?
Answer: Its protein production is “failed”.

Question: With “MSDINKPFLVVIVGPTASGKTELSIELAKQINGEIISGDSMQVYKQMDIGTAKVTNEEMDGIPHYMIDILNPDDSFSVYDFKLRAQALIEDITSRGKIPIIAGGTGLYIQSLIYDYPFDDETVSKEVEQKTQLQLQKLEPLTNQEVHDYLATFDPQSAKDIHPNNRKRVLRAIEYYLNTKKLISSRKKVQQFTENYDTLLIGIEMSRKTLYSRINKRVDIMLGHGLFNEVKNLVEQGYESTQSMQAIGYKELVPVVNGELSIDQAVETLKQHSRQYAKRQLTWFKNKLTVQWFNRETMSLQMMLDEITTQINKRSSKHDCKPQHPRSSTREL” as the sequence, how does the protein production read?
Answer: Its protein production is “failed”.

Question: With “MSDINTVNLINQMKTLAAQAEGIKPDSGLNHASFSSVFQQALNQVNELSQTADSLKTRFEIGDPNVSLGEVMIASQKSNLGFEATLRVRNKLVQAYQDIMNMPV” as the sequence, how does the protein production read?
Answer: Its protein production is “failed”.

Question: Which protein production does the source give for “MSDKLLIMFHGVGSNGVDLLPIAQYWQRQIDGLDIAYPNAPFPFMHSHEVFEWFSLTGITPQNRYERIVDAREYFDQTILRTLQEHKFQGDLSQLIFCGFSQGTIMCLDAIVSGRWSVAGCIGFSGRLASPVESDVRTTKISLMHGEADAVIAVEEGREAYHTLNEAGFDVQLETYTGLGHSVNELELKKGLEFLQAL” here?
Answer: The protein production was “failed”.

Question: With “MSDKRNPRISSRKQPQQARSSELVASILEAAVQVLASEGAQRFTTARVAERAGVSIGSLYQYFPNKAAILFRLQSDEWRRTTRLLGEILEDTTRPPLERLRRLVLAFVRSECEEAAIRVALSDAAPLYRDADEAREVKAEGARVFQAFLREALPEVAEAERSLAGDLLTTTLGAVGKQFSEQPRSEAEIERYAEALADMLCAYLAALGER” as the sequence, how does the protein production read?
Answer: Its protein production is “not failed”.

Question: For “MSDLLPLISVYGYVAALLLISEKTLKNEVVSRKFLHIMVGNIAFILPFFESRFVMAFLAAFPFVVLTFLMSPHSPVKLSSRTSVAGHGLGLVYYSIAWTVLAYAFFDRPDVIAVGIMAMSYGDGLASLIGGRYGKRKFRILGDEKSLEGSVAMFLGCVASFSVVSLYYHGSAGPLLLPLAAFATVVEAVTPKGLDNLSVSILTAILYFWMA”, which protein production is on record?
Answer: The protein production was “failed”.

Question: Which protein production does the source give for “MSDLQSLQPKLLWQWFDQICAIPHPSYKEEQLAQFIINWAKTKGFFAERDEVGNVLIRKPATVGMENRKPVVLQAHLDMVPQANEGTNHNFDQDPILPYIDGDWVKAKGTTLGADNGIGMASALAVLESNDIAHPELEVLLTMTEERGMEGAIGLRPNWLRSEILINTDTEENGEIYIGCAGGENADLELPIEYQVNNFEHCYQVVLKGLRGGHSGVDIHTGRANAIKVLLRFLAELQQNQPHFDFTLANIRGGSIRNAIPRESVATLVFNGDITVLQSAVQKFADVIKAELALTEPNLIFTLEKVEKPQQVFSSQCTKNIIHCLNVLPNGVVRNSDVIENVVETSLSIGVLKTEDNFVRSTMLVRSLIESGKSYVASLLKSLASLAQGNINLSGDYPGWEPQSHSDILDLTKTIYAQVLGTDPEIKVIHAGLECGLLKKIYPTIDMVSIGPTIRNAHSPDEKVHIPAVETYWKVLTGILAHIPSR” here?
Answer: Its protein production is “not failed”.

Question: For “MSDLVRVERKGRVTTVILNRPASRNAVNGPTAAALCAAFEQFDRDDAASVAVLWGAGGTFCAGADLKAFGTPEANSVHRTGPGPMGPSRMMLSKPVIAAVSGYAVAGGLELALWCDLRVAEEDAVFGVFCRRWGVPLIDGGTVRLPRLIGHSRAMDMILTGRGVPADEALAMGLANRVVPKGQARQAAEELAAQLAALPQQCLRSDRLSALHQWGLPESAALDLEFASIARVAGEALEGARRFAAGAGRHGAPAPRAEQGDTL”, which protein production is on record?
Answer: The protein production was “not failed”.

Question: For “MSDPGFEYAPIGLVELENRVIRRCNLHFASMFGGQESEYRDMPLLRLYPSHEDFERIGKRGLQVMRETGYYTDERIMRRRDGDLFWCRARGKSLTPDDPFRHGIWSFADISEERRVVELTPREREVALLTCRGLSAKEVGVELGLSYRTIEAHRARLLQKFGARKLPELVAKLSGMPL”, which protein production is on record?
Answer: Its protein production is “failed”.

Question: Which protein production does the source give for “MSDPGNEQNGDGIDPAIVEVLLVLREAGIENGATPWSLPKIAKRAQLPMSVLRRVLTQLQAAGLADVSVEADGRGHASLTQEGAALAAQLFPDPF” here?
Answer: Its protein production is “not failed”.

Question: For “MSDPYERVNGGRLAFKGGDLATRKSIEKKKKKKQKKNKEKLDGVEDGAKTAPDGSPPPAAAAGDEDIYSIDAAKKKKYDDLFPVEAKKFGYIPKANFESREDALDDRVKKKADRYCK”, which protein production is on record?
Answer: The protein production was “failed”.
